PMC10579300

Molecular target: SHP2 (UniProt P35235)
Assay: co-immunoprecipitation, Western blot
Details: reference: LAIR1 wild type; sites Y251,Y281

Question: Which “binding against the reference” value does the source give for “LAIR1 (from UniProt Q6GTX8) LAIR1 Y251/281F” here?
Answer: Its value is “weaker”.
